{"source": "paper PMC7308313", "test_system": "rLDHA (Homo sapiens)", "experiment": "SPR", "conditions": "His-tag pull-down: protein on beads in 50 mM Na3PO4, 300 mM NaCl, 0.01% Tween-20, pH 8.0, RNA binding 2 h in 3.25 mM Na3PO4, 70 mM NaCl"}
{"substance": "HULC lncRNA (in vitro transcribed)", "values": [{"measurement": "Kd", "result": 29, "unit": "nM"}]}
